Residue numbers refer to the chain shown, from its start.
Tests used:
K-MeLeu-TCLASYCWLF = system: T1, K-MeLeu-TCLASYCWLF
T1 sequence: KLTCLASYCWLF

[1] = system: T2, RRAPGKLCALASYACLFWTGIA-COOH
T2 sequence: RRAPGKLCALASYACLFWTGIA

[2] = system: T3, RRAPGKLT-Asp-LASY-Dap-WLFWTGIA-COOH
T3 sequence: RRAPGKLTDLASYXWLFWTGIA

RSQGRKLTCLASYCWLFLVVHR = system: T4, RSQGRKLTCLASYCWLFLVVHR
T4 sequence: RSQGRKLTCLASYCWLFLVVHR

compound 22 = system: T5, compound 22
T5 sequence: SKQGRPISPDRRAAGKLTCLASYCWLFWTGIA

RRApGKLTCLASYCWLFWTGIA [3] = system: T6, RRApGKLTCLASYCWLFWTGIA
T6 sequence: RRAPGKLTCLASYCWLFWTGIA

compound B = system: T7, compound B
T7 sequence: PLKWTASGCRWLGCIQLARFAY

RRAPGkLTCLASYCWLFWTGIA [4] = system: T8, RRAPGkLTCLASYCWLFWTGIA
T8 sequence: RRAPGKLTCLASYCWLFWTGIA

[5] = system: T9, RRAPGKLQCLASYCWLFWTG-Nle-A
T9 sequence: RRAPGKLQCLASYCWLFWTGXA

[6] = system: T10, RRAPGKLTCLASYCWLF GSGIS LSRAPESAAP
T10 sequence: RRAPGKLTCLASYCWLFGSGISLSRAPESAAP

[7] = system: T11, SKQGRPISPDrRAAGKLTCLASYCWLFWTGI
T11 sequence: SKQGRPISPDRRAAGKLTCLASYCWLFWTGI

compound 21 = system: T12, compound 21
T12 sequence: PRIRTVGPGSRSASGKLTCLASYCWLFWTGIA

RSTVSQMRCLASYCWLFPALVS = system: T13, RSTVSQMRCLASYCWLFPALVS
T13 sequence: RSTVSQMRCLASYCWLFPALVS

RRAPGKLTCLASYCWLFwTGIA [8] = system: T14, RRAPGKLTCLASYCWLFwTGIA
T14 sequence: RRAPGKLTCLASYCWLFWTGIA

[9] = system: T15, RRAP-Sar-KLTCLASYCWLFWTGIA
T15 sequence: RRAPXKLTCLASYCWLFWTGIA

RGRSAKLTCLASYCWLFFGVIL = system: T16, RGRSAKLTCLASYCWLFFGVIL
T16 sequence: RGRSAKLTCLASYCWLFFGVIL

[10] = system: T17, RRAPGKCTALASYCWLFWTGIA-CONH2
T17 sequence: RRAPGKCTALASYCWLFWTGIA

RYQRARLTCLASYCGLLFSMSA = system: T18, RYQRARLTCLASYCGLLFSMSA
T18 sequence: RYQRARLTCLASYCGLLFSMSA

[11] = system: T19, C(Acm)GGGGfpipR-PEG5-rRAPGKLTCLASYCWLFWTGIA
T19 sequence: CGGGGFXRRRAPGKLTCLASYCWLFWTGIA

WVPQWKVTCLASCSRLFHGFDA = system: T20, WVPQWKVTCLASCSRLFHGFDA
T20 sequence: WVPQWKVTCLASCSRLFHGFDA

KLTCLA-HSe-YCWLF = system: T21, KLTCLA-HSe-YCWLF
T21 sequence: KLTCLAXYCWLF

KLTCLKSYCWLF = system: T22, KLTCLKSYCWLF
T22 sequence: KLTCLKSYCWLF

[12] = system: T23, SKQGRPISPDrRAAGKLTCLaSYCWLFWTGIA
T23 sequence: T5 sequence

[13] = system: T24, rrapgkltclasycwlfwtgia (inverso)
T24 sequence: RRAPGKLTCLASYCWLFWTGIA

[14] = system: T25, rRAPGKLTCLASYCWLFWTGIA-PEG16-Lys(PEG2-Biotin)-PEG16-CNPRGD-Tyr(OEt)-RC
T25 sequence: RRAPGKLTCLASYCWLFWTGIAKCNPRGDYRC

[15] = system: T26, aigtwflwcysalctlkgparr (retro-inverso)
T26 sequence: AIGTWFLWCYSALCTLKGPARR

KLTCLASYCWIF = system: T27, KLTCLASYCWIF
T27 sequence: KLTCLASYCWIF

[16] = system: T28, PRIRTVGPGSRSASGKLTCLASYCWLFWTGI
T28 sequence: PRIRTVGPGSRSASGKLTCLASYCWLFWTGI

[17] = system: T29, RRAPG-MeLys-LTCLASYCWLFWTGIA
T29 sequence: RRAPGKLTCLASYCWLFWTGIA

[18] = system: T30, RRAPGKLTCLASYCWLF LGGIA PEGASTRTAN
T30 sequence: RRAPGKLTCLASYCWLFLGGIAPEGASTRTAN

[19] = system: T31, PRIRTVGPGSRSASGKLTCLASYCWLFATGIA
T31 sequence: T12 sequence with W28A

rRASGKLTCLASYCWLFWTGIA = system: T32, rRASGKLTCLASYCWLFWTGIA
T32 sequence: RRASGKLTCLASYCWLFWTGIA

KLTCLASYCLLF = system: T33, KLTCLASYCLLF
T33 sequence: KLTCLASYCLLF

[20] = system: T34, RRAPGKCTALASYAWCFWTGIA-CONH2
T34 sequence: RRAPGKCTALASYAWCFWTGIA

[21] = system: T35, RRAPGKLTCLASYCWLF WTAVG GQPYMLLAWR
T35 sequence: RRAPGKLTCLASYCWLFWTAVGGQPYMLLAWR

rRAPGKLTCLASYCWLSWTGIA = system: T36, rRAPGKLTCLASYCWLSWTGIA
T36 sequence: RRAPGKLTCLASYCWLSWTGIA

NGGMQKPACLASQCWLFANPLP = system: T37, NGGMQKPACLASQCWLFANPLP
T37 sequence: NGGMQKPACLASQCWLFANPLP

KLT-Lys-LASY-Glu-WLF = system: T38, KLT-Lys-LASY-Glu-WLF
T38 sequence: KLTKLASYEWLF

RRAPGKLTCLASYcWLFWTGIA [22] = system: T39, RRAPGKLTCLASYcWLFWTGIA
T39 sequence: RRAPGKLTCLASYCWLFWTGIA

[23] = system: T40, PRIRTVGPGSRSASGKSTCLASYCWLFWTGIA
T40 sequence: T12 sequence with L17S

[24] = system: T41, GRAMAAEPWP RQAPG KLTCLASYCWLFWTGIA
T41 sequence: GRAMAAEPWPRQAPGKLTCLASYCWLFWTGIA

[25] = system: T42, RRAPGKLQCLASYCWLFWTG-Tle-A
T42 sequence: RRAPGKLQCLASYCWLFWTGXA

RRAPGKLtCLASYCWLFWTGIA [26] = system: T43, RRAPGKLtCLASYCWLFWTGIA
T43 sequence: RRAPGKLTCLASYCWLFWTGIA

[27] = system: T44, PARGKERELM RRAPG KLTCLASYCWLFWTGIA
T44 sequence: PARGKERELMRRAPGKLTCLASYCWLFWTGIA

[28] = system: T45, NGALGFRSVV PRAAG KLTCLASYCWLFWTGIA
T45 sequence: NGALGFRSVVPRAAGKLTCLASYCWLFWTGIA

RRAPGKLTCLASYCwLFWTGIA [29] = system: T46, RRAPGKLTCLASYCwLFWTGIA
T46 sequence: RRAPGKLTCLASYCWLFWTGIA

EGRRDKLTCLASYCWLVGHGQH = system: T47, EGRRDKLTCLASYCWLVGHGQH
T47 sequence: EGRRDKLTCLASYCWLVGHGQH

RRRKLTCLASYCWLFRRR = system: T48, RRRKLTCLASYCWLFRRR
T48 sequence: RRRKLTCLASYCWLFRRR

VSGTGRLTCVASYCWMFQLGSF = system: T49, VSGTGRLTCVASYCWMFQLGSF
T49 sequence: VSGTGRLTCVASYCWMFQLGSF

[30] = system: T50, RRAPGKLT-Dab-LASY-Asp-WLFWTGIA-COOH
T50 sequence: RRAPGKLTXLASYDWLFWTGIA

[31] = system: T51, PRIrTVGPGSrSASGKSTCLASYCWLFWTGIA-PEG4-Pra
T51 sequence: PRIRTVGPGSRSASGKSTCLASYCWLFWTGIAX

Substance: human Factor IXa
- Vmax, FXa generation assay (K-MeLeu-TCLASYCWLF): > 2
- Vmax, FXa generation assay [1]: > 0.3
- Vmax, FXa generation assay; (++) means 1-2 [2]: (++)
- Vmax, FXa generation assay; (++) means 1-2 (RSQGRKLTCLASYCWLFLVVHR): (++)
- Vmax, FXa generation assay with hFIXa (compound 22): > 3
- Vmax, FXa generation assay; (++) means 1-2 (RRApGKLTCLASYCWLFWTGIA [3]): (++)
- Vmax, FXa generation assay with hFIXa; (++) means 1-2 (compound B): (++)
- Vmax, FXa generation assay (RRAPGkLTCLASYCWLFWTGIA [4]): > 2
- Vmax, FXa generation assay [5]: > 2
- Vmax, FXa generation assay [6]: > 3
- Vmax, FXa generation assay [7]: > 3
- Vmax, FXa generation assay with hFIXa (compound 21): > 3
- Vmax, FXa generation assay; (++) means 1-2 (RSTVSQMRCLASYCWLFPALVS): (++)
- Vmax, FXa generation assay; (++) means 1-2 (RRAPGKLTCLASYCWLFwTGIA [8]): (++)
- Vmax, FXa generation assay [9]: > 2
- Vmax, FXa generation assay (RGRSAKLTCLASYCWLFFGVIL): > 2
- Vmax, FXa generation assay [10]: > 2
- Vmax, FXa generation assay (RYQRARLTCLASYCGLLFSMSA): > 0.5
- Vmax, FXa generation assay [11]: > 3
- Vmax, FXa generation assay (WVPQWKVTCLASCSRLFHGFDA): > 1.5
- Vmax, FXa generation assay; (++) means 1-2 (KLTCLA-HSe-YCWLF): (++)
- Vmax, FXa generation assay; (++) means 1-2 (KLTCLKSYCWLF): (++)
- Vmax, FXa generation assay [12]: > 0.5
- Vmax, FXa generation assay [13]: > 2
- Vmax, FXa generation assay [14]: > 3
- Vmax, FXa generation assay [15]: > 2
- Vmax, FXa generation assay (KLTCLASYCWIF): > 2
- Vmax, FXa generation assay [16]: > 3
- Vmax, FXa generation assay; (++) means 1-2 [17]: (++)
- Vmax, FXa generation assay [18]: > 3
- Vmax, FXa generation assay [19]: > 3
- Vmax, FXa generation assay; (++) means 1-2 (rRASGKLTCLASYCWLFWTGIA): (++)
- Vmax, FXa generation assay (KLTCLASYCLLF): > 2
- Vmax, FXa generation assay; (++) means 1-2 [20]: (++)
- Vmax, FXa generation assay; (++) means 1-2 [21]: (++)
- Vmax, FXa generation assay (rRAPGKLTCLASYCWLSWTGIA): > 1.8
- Vmax, FXa generation assay; (++) means 1-2 (NGGMQKPACLASQCWLFANPLP): (++)
- Vmax, FXa generation assay; (++) means 1-2 (KLT-Lys-LASY-Glu-WLF): (++)
- Vmax, FXa generation assay; (++) means 1-2 (RRAPGKLTCLASYcWLFWTGIA [22]): (++)
- Vmax, FXa generation assay [23]: > 3
- Vmax, FXa generation assay [24]: > 2
- Vmax, FXa generation assay [25]: > 2
- Vmax, FXa generation assay; (++) means 1-2 (RRAPGKLtCLASYCWLFWTGIA [26]): (++)
- Vmax, FXa generation assay [27]: > 3
- Vmax, FXa generation assay [28]: > 2
- Vmax, FXa generation assay (RRAPGKLTCLASYCwLFWTGIA [29]): > 2
- Vmax, FXa generation assay (EGRRDKLTCLASYCWLVGHGQH): > 0.3
- Vmax, FXa generation assay; (++) means 1-2 (RRRKLTCLASYCWLFRRR): (++)
- Vmax, FXa generation assay; (++) means 1-2 (VSGTGRLTCVASYCWMFQLGSF): (++)
- Vmax, FXa generation assay; (++) means 1-2 [30]: (++)
- Vmax, FXa generation assay [31]: > 3
